Data taken from patent publication US12006344 (Novo Nordisk, dated 2024).
Numbering of substitutions follows the chain as printed. Names may count otherwise.

T1: human MIC-1 receptor (hGFRAL, GDNF family receptor alpha like) (human, UniProt Q6UXV0 19-394)
T1 sequence (looked up): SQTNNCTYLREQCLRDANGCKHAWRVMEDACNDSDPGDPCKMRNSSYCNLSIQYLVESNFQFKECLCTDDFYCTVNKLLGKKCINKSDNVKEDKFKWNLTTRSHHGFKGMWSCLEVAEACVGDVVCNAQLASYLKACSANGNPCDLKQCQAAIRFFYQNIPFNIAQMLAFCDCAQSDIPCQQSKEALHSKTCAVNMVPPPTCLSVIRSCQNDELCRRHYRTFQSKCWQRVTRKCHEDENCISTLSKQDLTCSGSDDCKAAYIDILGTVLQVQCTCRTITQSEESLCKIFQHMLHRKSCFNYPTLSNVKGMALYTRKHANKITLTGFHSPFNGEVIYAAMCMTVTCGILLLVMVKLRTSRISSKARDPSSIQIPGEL

B1: …-MIC-1-Δ1-3 (ligand)
chain: SEPATSGSETPGTSTEPSEGSAPGGDHCPLGPGRCCRLHTVRASLEDLGWADWVLSPREVQVTMCIGACPSQFRAANMHAQIKTSLHRLKPDTVPAPCCVPASYNPMVLIQKTDTGVSLQTYDDLLAKDCHCI
B2: (SEPATSGSETPG)2-MIC-1-Δ1-3(M57L) (ligand)
chain: B1 chain with T13S, S14E, T15P, E16A, P17T, E19G, G20S, S21E, A22T, M78L
B3: (SEPATSGSETPG)2-MIC-1-Δ1-3(M57E) (ligand)
chain: B1 chain with T13S, S14E, T15P, E16A, P17T, E19G, G20S, S21E, A22T, M78E
B4: (SEPATSGSETPG)2-MIC-1-Δ1-3(M86L) (ligand)
chain: B1 chain with T13S, S14E, T15P, E16A, P17T, E19G, G20S, S21E, A22T, M107L
B5: (SEPATSGSETPG)2-MIC-1-Δ1-3 (ligand)
chain: B1 chain with T13S, S14E, T15P, E16A, P17T, E19G, G20S, S21E, A22T
B6: (SEPATSGSETPG)2-MIC-1-Δ1-3(M57L, M86L) (ligand)
chain: SEPATSGSETPGSEPATSGSETPGGDHCPLGPGRCCRLHTVRASLEDLGWADWVLSPREVQVTMCIGACPSQFRAANLHAQIKTSLHRLKPDTVPAPCCVPASYNPLVLIQKTDTGVSLQTYDDLLAKDCHCI
B7: SEPATSGSETPGTSESATPESGPGTSTEPS-MIC-1-Δ1-3 (ligand)
chain: SEPATSGSETPGTSESATPESGPGTSTEPSGDHCPLGPGRCCRLHTVRASLEDLGWADWVLSPREVQVTMCIGACPSQFRAANMHAQIKTSLHRLKPDTVPAPCCVPASYNPMVLIQKTDTGVSLQTYDDLLAKDCHCI
B8: SEPATSGSETPGTSESATPESGPG TSTEPSEG-MIC-1-Δ1-3 (ligand)
chain: SEPATSGSETPGTSESATPESGPGTSTEPSEGGDHCPLGPGRCCRLHTVRASLEDLGWADWVLSPREVQVTMCIGACPSQFRAANMHAQIKTSLHRLKPDTVPAPCCVPASYNPMVLIQKTDTGVSLQTYDDLLAKDCHCI
B9: MIC-1(R2A, N3E, A81E) (ligand)
chain: AAEGDHCPLGPGRCCRLHTVRASLEDLGWADWVLSPREVQVTMCIGACPSQFRAANMHAQIKTSLHRLKPDTVPAPCCVPESYNPMVLIQKTDTGVSLQTYDDLLAKDCHCI
B10: A(GPEQGQEP)3-MIC-1-Δ1-3 (ligand)
chain: AGPEQGQEPGPEQGQEPGPEQGQEPGDHCPLGPGRCCRLHTVRASLEDLGWADWVLSPREVQVTMCIGACPSQFRAANMHAQIKTSLHRLKPDTVPAPCCVPASYNPMVLIQKTDTGVSLQTYDDLLAKDCHCI
B11: AAPDEGTEEETEGSGSGSGSGS-MIC-1-Δ1-3 (ligand)
chain: AAPDEGTEEETEGSGSGSGSGSGDHCPLGPGRCCRLHTVRASLEDLGWADWVLSPREVQVTMCIGACPSQFRAANMHAQIKTSLHRLKPDTVPAPCCVPASYNPMVLIQKTDTGVSLQTYDDLLAKDCHCI

Legend:
[1] = biological target: human MIC-1 receptor (hGFRAL, GDNF family receptor alpha like) (human) (UniProt Q6UXV0); assay: cell-based or functional assay
[2] = biological target: T1, human MIC-1 receptor (hGFRAL, GDNF …); assay: cell-based or functional assay

pERK EC50 (nM) [1] [nM]	pERK EC50 (nM) [2] [nM]	pERK Emax (%) [2] [%]	Molecule
3.6	–	–	HSA-GGSSSGS (SEQ ID NO: 152)-MIC-1 (SEQ ID NO: 1) (from UniProt Q99988 197-308) (ligand)
–	0.7	100	B1
–	0.6	100	B2
–	0.6	60	B3
–	0.4	100	B4
–	0.4	100	B5
–	0.4	100	B6
–	0.4	100	B7
–	0.4	100	B8
–	0.3	100	B9
–	0.8	100	B10
–	0.5	100	B11
